Data taken from patent publication US20090081195.

System: SLK (construct not stated)
Sequence (chain, as listed by the source): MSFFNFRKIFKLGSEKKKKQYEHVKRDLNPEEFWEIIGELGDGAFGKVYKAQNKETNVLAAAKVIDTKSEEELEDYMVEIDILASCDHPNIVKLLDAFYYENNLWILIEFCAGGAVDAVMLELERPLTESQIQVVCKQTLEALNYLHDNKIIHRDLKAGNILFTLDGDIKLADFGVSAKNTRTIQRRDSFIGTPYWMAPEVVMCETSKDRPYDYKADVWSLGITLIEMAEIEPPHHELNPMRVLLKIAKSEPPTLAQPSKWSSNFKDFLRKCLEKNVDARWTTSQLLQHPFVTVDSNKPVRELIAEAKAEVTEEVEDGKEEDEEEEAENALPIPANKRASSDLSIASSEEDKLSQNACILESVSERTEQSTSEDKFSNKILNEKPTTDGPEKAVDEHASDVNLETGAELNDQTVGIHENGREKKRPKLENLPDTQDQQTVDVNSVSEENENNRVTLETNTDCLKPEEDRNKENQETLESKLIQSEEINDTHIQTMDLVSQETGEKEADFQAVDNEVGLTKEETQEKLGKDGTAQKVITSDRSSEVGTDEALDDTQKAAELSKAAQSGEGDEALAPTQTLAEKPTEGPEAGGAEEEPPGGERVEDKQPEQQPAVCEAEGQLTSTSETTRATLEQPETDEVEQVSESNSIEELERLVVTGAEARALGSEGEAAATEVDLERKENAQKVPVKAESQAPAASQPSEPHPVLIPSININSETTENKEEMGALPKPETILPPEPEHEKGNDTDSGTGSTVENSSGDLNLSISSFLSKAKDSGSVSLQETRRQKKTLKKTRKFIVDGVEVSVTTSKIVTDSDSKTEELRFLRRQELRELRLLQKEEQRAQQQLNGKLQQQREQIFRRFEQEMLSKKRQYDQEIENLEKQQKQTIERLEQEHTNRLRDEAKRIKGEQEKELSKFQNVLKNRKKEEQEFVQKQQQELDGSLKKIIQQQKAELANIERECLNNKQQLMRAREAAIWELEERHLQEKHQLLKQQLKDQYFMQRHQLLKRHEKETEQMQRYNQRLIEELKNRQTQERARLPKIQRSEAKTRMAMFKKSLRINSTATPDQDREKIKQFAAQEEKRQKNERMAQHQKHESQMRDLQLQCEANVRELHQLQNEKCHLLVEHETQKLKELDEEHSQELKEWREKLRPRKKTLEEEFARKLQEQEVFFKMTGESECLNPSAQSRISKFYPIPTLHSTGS

Substance: nm23 (nucleoside diphosphate kinase; NDPK)
- SLK activity in vitro (kinase assay, autophosphorylation): nm23 is not a substrate for SLK but rather inhibits its activity in vitro through direct interaction
